Results: patent US11504432B2, “Delivery system for targeted delivery of a therapeutically active payload” (TECHNISCHE UNIVERSITÄT DRESDEN, priority 2016, dated 2022)
One block for each molecule: values may come before it.

Experiments:
[1] = tested on: 293T-Blue^TLR3/PSCA reporter cells; assay: NFkappaB activation, SEAP reporter, PSCA-positive cells; assay type: cell-based
Description: The target delivery of TLR3 agonist Riboxxol® to the endosomal compartment of PSCA-positive cells and the resulting NFkappaB activation and induction of apoptosis by the use of the BIC delivery system was investigated using 293T-Blue^TLR3/PSCA reporter cells. 50.000 293T-Blue^TLR3/PSCA cells in 200 μl HEKBlue detection medium were plated in 96 well plates and treated with increasing concentrations of BICs containing RIBOXXOL® and scFv(h-AM1)-BAP or were treated with BICs containing Riboxxol® and scFv(MR1.1)-BAP, which should not bind to the PSCA-positive target cells. The induced secretion of the reporter SEAP, or its enzymatic activity in HEK Blue medium was measured at 655 nm in an ELISA reader after 24 h. […] […] A plateau of activation is reached at a concentration of the anti-PSCA immunoconjugate at 25 nM. […] Apoptosis levels of treated cells were normalized to untreated 293T-Blue^TLR3/PSCA cells by subtracting basal apoptosis levels from induced apoptosis-levels in the treatment groups.

[2] = tested on: 293T^EGFRvIII/c-Luc cells; assay: Luciferase knockdown by scFv-P-BAP guided polyplexes; assay type: cell-based; details: inhibitor added 4 h prior transfection
Description: As positive RNAi control, cells were transfected with siLuc3 using the transfection reagent Interferin®. For investigating the route of internalization, endocytose inhibitors 0.6 μg/ml filipin III and 6 μg/ml chlorpromazine (both Sigma Aldrich) were added 4 h prior transfection of cells.

wild type EGFR = wild type EGFR (Homo sapiens, UniProt P00533); details: cited from earlier work
EGFRvIII neo-epitope = EGFRvIII neo-epitope (Homo sapiens, UniProt P00533, DELINS30-297G); details: cited from earlier work
tumors = details: in vivo; cited from earlier work
293T^EGFRvIII cells = assay: EGFRvIII receptor internalization, FACS; assay type: cell-based; details: crosslinking with scFv plus anti-myc-antibodies, 2 h to 48 h
Description: (§1) For studies of EGFRvIII and PSCA internalization, 293T^EGFRvIII and 293T^PSCA cells, respectively, were carefully detached with Trypsin/EDTA solution (Sigma/Aldrich). After repeated washing in 1 mg/ml BSA/PBS, 2×10^5 cells were fed with fresh medium and plated in 96 round bottom wells. Crosslinking of receptors was accomplished by incubation with 1 μg parental scFv specific for the cognate receptor for 1 h at 4° C. followed by extensive washing with PBS and treatment with 0.5 μg of biotin-labelled anti-myc antibody (Miltenyi Biotech) for 10 min at 4° C., followed by extensive washing with PBS and feeding with fresh medium. To achieve a monovalent binding of receptors, the 293T^EGFRvIII and 293T^PSCA cells were incubated only with scFv(MR1.1) and scFv(AM1), respectively, for 1 h at 4° C., followed by extensive washing with PBS and feeding with fresh medium. EGFRvIII surface expression was monitored after incubation at 37° C. in a humidified CO2 incubator after 2 h, 4 h, 8 h, 24 h, and 48 h utilizing an anti-biotin-PE antibody (Miltenyi Biotech) for the crosslinked receptors and incubation of biotinylated anti-myc antibody for 10 min at 4° C. followed by anti-biotin-PE antibody staining for 10 min at 4° C., for cells with monovalent binding of receptors. All obtained data were analyzed by FlowJo software version 7.6.5 (TreeStar Inc., Ashland, USA).

EGFRvIII = target: T1, EGFRvIII (Homo sapiens, UniProt P00533, DELINS30-297G); assay: Flow cytometry binding of scFvs to 293T^EGFRvIII cells; details: 1 μg scFv
T1 construct: expressed in transfected cells; host or cells: 293T cells with ectopic EGFRvIII (293T^EGFRvIII)
Description: To investigate scFv(MR1.1)-P-BAP binding to EGFRvIII-293T target cells with ectopic expression of the cognate surface receptor, 2×10^5 cells were incubated with 1 μg of recombinant scFv and scFv-P-BAPs, respectively. The bound antibodies were detected either via their myc-epitope using anti-myc/FITC antibody or via their biotin residue using anti-biotin/PE antibody (1:10; Miltenyi Biotec, Bergisch Gladbach, Germany). Cells stained only with secondary antibody were included as a control. […] At least 10,000 stained cells were measured by flow cytometry (MACSQuant, Miltenyi Biotec, Bergisch Gladbach, Germany) and analyzed by FlowJo software version 7.6.5 (TreeStar Inc., Ashland, USA).

293T^PSCA cells = assay: PSCA receptor internalization, FACS; assay type: cell-based; details: crosslinking with scFv plus anti-myc-antibodies, 2 h to 48 h
Description: as §1

PSCA = target: T2, PSCA (Homo sapiens, UniProt O43653); assay: Binding affinity (KD) by flow cytometry on 293T^PSCA cells; details: FIG. 9
T2 construct: expressed in transfected cells; host or cells: 293T^PSCA cells
T2 sequence (O43653 12-83): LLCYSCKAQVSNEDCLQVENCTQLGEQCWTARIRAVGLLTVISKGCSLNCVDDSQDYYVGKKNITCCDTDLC
Description: For determination of binding affinity, murine scFv(AM1) and the humanized scFv(h-AM1) were incubated in descending concentrations with 293T^PSCA cells. After detection with a secondary anti-myc-PE-antibody the MFIs were determined using a MACSQuant Cytometer (Miltenyi Biotech) and FlowJo software and the Kd values were calculated with the PRISM software program. FIG. 9 depicts the graphs for the KD value calculations.

avidin = avidin (Gallus gallus, UniProt P02701); assay: Conjugation of biotinylated scFvs to avidin, Western blot; assay type: binding; details: molar ratios from 1:1 to 4:1
Description: Conjugation of recombinant biotinylated single chain antibodies was investigated in Western blot experiments. For this 10.7 pmol of recombinant scFv-P-BAP and scFv-BAP was incubated for 30 min at RT with […] as depicted in FIG. 11c for scFv(MR1.1)-P-BAP and FIG. 12 for scFv(MR1.1)-BAP and scFv(h-AM1)-BAP. The avidin/scFv-BAP complexes were subjected to non-reducing SDS-PAGE. After protein transfer onto a Westran PVDF membrane (Whatman GmbH, Dassel, Germany), proteins were detected by a monoclonal murine c-myc-specific antibody (1:5,000, Invitrogen, Carlsbad, USA) and a HRP-labeled rabbit anti-mouse secondary antibody (1:1,000; Dako, Glostrup, Denmark), and after stripping of the membranes by a HRP-conjugated biotin-specific antibody (1:8,000; Sigma-Aldrich, St. Louis, USA). Membranes were visualized and documented using the Luminata Classico Western HRP substrate (Merck Millipore, Darmstadt, Germany) and the imaging system LAS3000 (FujiFilm Europe, Düsseldorf, Germany).

avidin, sequence (P02701 25-152): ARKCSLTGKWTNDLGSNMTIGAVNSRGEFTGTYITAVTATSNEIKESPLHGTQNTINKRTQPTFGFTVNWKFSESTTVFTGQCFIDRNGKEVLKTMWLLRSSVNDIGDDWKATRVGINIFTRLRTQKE

Molecule: CN(C)CCCN1c2ccccc2Sc2ccc(Cl)cc21 [chlorpromazine, reference compound]
inhibition of chlatrin-mediated endocytosis of BICs ([1]; 31 μg/ml of chlorpromazine): effectively inhibited

Molecule: CCCCC[C@@H](O)[C@H]1C(=O)O[C@H](C)[C@@H](O)/C=C/C=C/C=C/C=C/C=C(\C)[C@@H](O)C[C@H](O)C[C@H](O)C[C@H](O)C[C@H](O)C[C@H](O)C[C@@H]1O [filipin III, reference compound]
effect of endocytosis inhibitor on delivery of EGFRvIII-specific polyplexes [2]: inhibited
effect on induction of the reporter SEAP by BICs ([1]; 0.3 μg/ml filipin III): slightly weakened induction

B1: scFv(MR1.1): EGFRvIII-specific single chain fragment variable from the literature [30, 31] (protein)
scFv: QVKLQQSGGGLVKPGASLKLSCVTSGFTFRKFGMSWVRQTSDKRLEWVASISTGGYNTYYSDNVKGRFTISRENAKNTLYLQMSSLKSEDTALYYCTRGYSPYSYAMDYWGQGTTVTVSSSGGGSGGGGSGGGGSDIELTQSPASLSVATGEKATIRCMTSTDIDDDMNWYQQKPGEPPKFLISEGNTLRPGVPSRFSSSGTGTDFVFTIENTLSEDVGDYYCLQSWNVPLTFGDGTKLEIT
modifications: left off: small tags and cut ends
cross-reaction with wild type EGFR (wild type EGFR): does not cross-react
affinity to EGFRvIII neo-epitope (EGFRvIII neo-epitope): high affinity
retention in tumors (tumors): excellent retention
EGFRvIII internalization (293T^EGFRvIII cells): time-dependent

B2: scFv(AM1): murine 7F5-derived single chain antibody fragment specific for prostate stem cell antigen (PSCA) (protein, listed as Mus musculus)
scFv: METDTLLLWVLLLWVPGSTGDAAQPARRARRTKLGTELGSQVKLQESGGGLVQPGGSLKLSCVASGFTFSSYTMSWVRRTPEKRLEWVAYIHNGGGHTYYPDTIKGRFTISRDNAKNTLFLEMSSLKSEDTAMYYCTRRMYYGNSHWYFDVWGAGTSVTVSSAKTTPPSVYGGGGSGGGGSGGGGSTNSDIVMTQSPSSLSASLGDRVTINCRTSQDISNYLNWYQLTPDGTVKLLIYYTLKLNSGVPSRFSGSGSGTDYSLTINNLEKEDFATYFCQQSKTLPWTFGGGTKLEIKRADAAPTVSGPKLSSKLKVTVNGTAYDVDVDVDKSHENPMGTILFGGGTGGAPAPAAGGAGAGKAGEGEIPAPLAGTVSKILVKEGDTVKAGQTVLVLEAMKMETEINAPTDGKVEKVLVKERDAVQGGQGLIKIGDLELIEGSSGPEQKLISEEDLNSAVDHHHHHH
binding to EGFRvIII-positive 293T^EGFRvIII cells (EGFRvIII): did not recognize

B3: scFv(AM1)-P-BAP: scFv(AM1) fused to PSTCD biotin acceptor peptide, SEQ ID NO: 1 (protein, listed as Mus musculus)
scFv: B2 scFv
binding to EGFRvIII-positive 293T^EGFRvIII cells (EGFRvIII): did not recognize

The next lines start with results.

affinity to PSCA compared to parental murine scFv (PSCA): improved affinity
B4: scFv(h-AM1): humanized PSCA-specific scFv with c-Myc-Tag, Bio-Tag BAP and His6, SEQ ID NO: 2 (protein)
scFv: METDTLLLWVLLLWVPGSTGDAAQPARRARRTKLGTELGSEVQLLESGGGLVQPGGSLRLSCVASGFTFSSYTMSWVRQAPGKGLEWVSYIHNGGGHTYYADSVKGRFTISRDNSKNTLYLQMNSLRAEDTAVYYCTRRMYYGNSHWYFDVWGAGTRVTITSAKTTPPSVYGGGGSGGGGSGGGGSTNSDIQMTQSPSSLSASVGDRVTITCRTSQSISNYLNWYQQKPGKAPKLLIYYTLKLNSGVPSRFSGSGSGTDFTLTISSLQPEDFATYYCQQSKTLPWTFGGGTKLEIKRADAAPTVSGPEQKLISEEDLNSAVDMSGLNDIFEAQKIEWHEGAPSSHHHHHH
modifications: Humanized antibody
PSCA internalization (293T^PSCA cells): time-dependent

binding to EGFRvIII-positive 293T^EGFRvIII cells (EGFRvIII): bind
conjugation to avidin (avidin): efficiently conjugated
B5: scFv(MR1.1)-P-BAP: scFv(MR1.1) fused to PSTCD biotin acceptor peptide, SEQ ID NO: 3 (protein)
scFv: METDTLLLWVLLLWVPGSTGDAAQPARRARRTKLGTELGSHMQVKLQQSGGGLVKPGASLKLSCVTSGFTFRKFGMSWVRQTSDKRLEWVASISTGGYNTYYSDNVKGRFTISRENAKNTLYLQMSSLKSEDTALYYCTRGYSPYSYAMDYWGQGTTVTVSSSGGGSGGGGSGGGGSDIELTQSPASLSVATGEKATIRCMTSTDIDDDMNWYQQKPGEPPKFLISEGNTLRPGVPSRFSSSGTGTDFVFTIENTLSEDVGDYYCLQSWNVPLTFGDGTKLEITKLSSKLKVTVNGTAYDVDVDVDKSHENPMGTILFGGGTGGAPAPAAGGAGAGKAGEGEIPAPLAGTVSKILVKEGDTVKAGQTVLVLEAMKMETEINAPTDGKVEKVLVKERDAVQGGQGLIKIGDLELIEGSSGPEQKLISEEDLNSAVDHHHHHH
modifications: Single chain antibody fragment
